The source of these data is the RNAGym collection of RNA variant scans (doi:10.7554/elife.90254).

B1: LINE1-mini (parent)
chain: GGCAGAGCUCAACACAGCGUGGCAAAGUGGCUGUGGCUAGACUGCC

The variants in this data set derive from B1. Kind of data set: self-cleavage, relative activity (ratio to wild type); higher = more cleavage; in vitro, sequencing; the parent is a self-cleaving ribozyme.
Take A6G A16G: the self-cleavage was found to be 0.12.
Turning to A6G A16U, the self-cleavage was 0.06.
In the case of A6G A16C, the self-cleavage amounted to 0.04.
For the variant A6C U43G, the self-cleavage came to 0.03.
For A6C U43A, the self-cleavage was determined as 0.13.
With A6C U43C, the self-cleavage came out at 0.08.
The same measure for A6G C31G: 0.05.
For A6G C31U, the self-cleavage is 0.03.
Consider A6G C31A, for which the self-cleavage was 0.07.
In the case of A6C A26G, the self-cleavage came out at 0.65.
With A6C A26U, the self-cleavage came to 0.77.
As to A6C A26C, the self-cleavage stood at 0.48.
With A6C U38G, the self-cleavage came out at 0.02.
In the case of A6C U38A, the self-cleavage turned out to be 0.28.
The result for A6C U38C reads 0.21; that for A6G G36U, 0.04.
The same measure for A6G G36C: 0.09; for A6G G36A: 0.13.
The same measure for A6U C18G: 0.24.
Take A6U C18A: the self-cleavage is 0.52.
On to A6G A12G, for which the self-cleavage amounted to 0.03.
As for A6G A12U, the self-cleavage stood at 0.09.
In the case of A6G A12C, the self-cleavage stood at 0.05.
The same measure for A6C C45U: 0.7; for A6C C45G: 0.09; for A6C C45A: 0.47.
Turning to A6G A14U, the self-cleavage is 0.05.
As for A6G A14G, the self-cleavage was 0.07.
Regarding A6G A14C, the self-cleavage came out at 0.14.
Regarding A6G U38G, the self-cleavage turned out to be 0.01.
For the variant A6G U38C, the self-cleavage was 0.07.
As for A6G U38A, the self-cleavage came out at 0.06.
In the case of A6C G44U, the self-cleavage was 0.18.
As for A6C G44C, the self-cleavage was 0.24.
On to A6C G44A, for which the self-cleavage came out at 0.22.
For the variant A6C U28A, the self-cleavage was 0.64.
The same measure for A6C U28C: 0.36.
As to A6C U28G, the self-cleavage was 0.2.
Turning to A6C A39U, the self-cleavage came to 0.68.
On to A6C A39C, for which the self-cleavage was found to be 0.23.
On to A6C A39G, for which the self-cleavage was found to be 0.1.
The result for A6C A12U reads 0.16; that for A6C A12C, 0.06.
The result for A6C A12G reads 0.04; that for A6G U28A, 0.05; that for A6G U28G, 0.09.
As for A6G U28C, the self-cleavage turned out to be 0.05.
On to G5U G40A, for which the self-cleavage was 0.06.
For the variant G5U G40U, the self-cleavage turned out to be 0.09.
In the case of G5U G40C, the self-cleavage is 0.05.
For G5U G35A, the self-cleavage turned out to be 0.08.
Consider G5U G35U, for which the self-cleavage was 0.15.
The result for G5U G35C reads 0.06; that for A6U C13A, 0.2.
Turning to A6U C13U, the self-cleavage is 0.11.
On to A6U C13G, for which the self-cleavage came to 0.28.
The same measure for A6G G22C: 0.07; for A6G G22A: 0.11; for A6G G22U: 0.12.
In the case of A6G U43A, the self-cleavage worked out at 0.15.
The same measure for A6G U43G: 0; for A6G U43C: 0.09; for A6G G35C: 0.12.
With A6G G35U, the self-cleavage is 0.08.
The result for A6G G35A reads 0.05; that for A6C A11C, 0.05; that for A6C A11G, 0.02.
As for A6C A11U, the self-cleavage was 0.1.
The same measure for A6G G17C: 0.09; for A6G G17U: 0.04.
Consider A6G G17A, for which the self-cleavage turned out to be 0.09.
The same measure for A6G G33C: 0.03; for A6G G33A: 0.06.
The same measure for A6G G33U: 0.07; for A6C C42A: 0.11; for A6C C42U: 0.23.
As to A6C C42G, the self-cleavage is 0.02.
For A6U A12U, the self-cleavage worked out at 0.17.
The same measure for A6U A12C: 0.04; for A6U A12G: 0.04; for A6C A14G: 0.16.
As for A6C A14C, the self-cleavage was 0.13.
As to A6C A14U, the self-cleavage stood at 0.22.
In the case of A6C U34G, the self-cleavage was 0.25.
The result for A6C U34C reads 0.11; that for A6C U34A, 0.05; that for A6G G44U, 0.13.
The result for A6G G44A reads 0.46; that for A6G G44C, 0.14; that for A6G C8G, 0.08.
A6G C8U: the self-cleavage came out at 0.22.
Turning to A6G C8A, the self-cleavage is 0.15.
The result for A6U A41G reads 2.27.
As to A6U A41C, the self-cleavage is 0.07.
Consider A6U A41U, for which the self-cleavage amounted to 0.09.
In the case of A6G A11U, the self-cleavage is 0.02.
The result for A6G A11C reads 0.02.
Turning to A6G A11G, the self-cleavage stood at 0.02.
Take A6C G35A: the self-cleavage was found to be 0.08.
With A6C G35U, the self-cleavage was 0.09.
For the variant A6C G35C, the self-cleavage worked out at 0.05.
For A6C A41C, the self-cleavage worked out at 0.04.
The result for A6C A41U reads 0.1; that for A6C A41G, 1.17; that for A6G G29A, 0.08.
With A6G G29U, the self-cleavage is 0.09.
For A6G G29C, the self-cleavage is 0.07.
The same measure for A6C C46G: 0.46; for A6C C46U: 0.89.
As for A6C C46A, the self-cleavage came out at 0.5.
For the variant A6G A41U, the self-cleavage amounted to 0.1.
As for A6G A41G, the self-cleavage is 0.39.
In the case of A6G A41C, the self-cleavage worked out at 0.15.
For the variant G5U U38A, the self-cleavage amounted to 0.08.
Take G5U U38G: the self-cleavage stood at 0.03.
In the case of G5U U38C, the self-cleavage turned out to be 0.05.
With A6G C42A, the self-cleavage is 0.12.
The result for A6G C42G reads 0.04.
The result for A6G C42U reads 0.07.
In the case of G5U U43C, the self-cleavage worked out at 0.06.
On to G5U U43G, for which the self-cleavage amounted to 0.1.
G5U U43A: the self-cleavage worked out at 0.08.
Take A6U A24C: the self-cleavage was 1.21.
For the variant A6U A24G, the self-cleavage amounted to 0.94.
With A6U A24U, the self-cleavage turned out to be 1.6.
A6G U32C: the self-cleavage was found to be 0.07.
As for A6G U32G, the self-cleavage came out at 0.07.
As to A6G U32A, the self-cleavage was 0.07.
For A6C G36C, the self-cleavage stood at 0.16.
The same measure for A6C G36U: 0.06; for A6C G36A: 0.31.
The result for G5U G36C reads 0.04.
Take G5U G36A: the self-cleavage was 0.33.
In the case of G5U G36U, the self-cleavage was 0.57.
For the variant A6C C8G, the self-cleavage is 0.07.
Consider A6C C8A, for which the self-cleavage was determined as 0.26.
The same measure for A6C C8U: 0.51; for A6C U9C: 0.03; for A6C U9G: 0.11.
On to A6C U9A, for which the self-cleavage turned out to be 0.18.
The same measure for A6G G27U: 0.08; for A6G G27C: 0.07.
On to A6G G27A, for which the self-cleavage amounted to 0.14.
Regarding A6C C31U, the self-cleavage worked out at 0.22.
The same measure for A6C C31G: 0.09.
Regarding A6C C31A, the self-cleavage came to 0.11.
Turning to A6C A16C, the self-cleavage came to 0.1.
With A6C A16G, the self-cleavage turned out to be 0.22.
The result for A6C A16U reads 0.09.
A6U A39C: the self-cleavage came out at 0.51.
For the variant A6U A39G, the self-cleavage stood at 0.04.
The same measure for A6U A39U: 0.35.
A6C C18A: the self-cleavage amounted to 0.2.
As for A6C C18U, the self-cleavage was 1.1.
A6C C18G: the self-cleavage came out at 0.24.
On to A6G A39U, for which the self-cleavage was found to be 0.08.
Take A6G A39C: the self-cleavage is 0.15.
The result for A6G A39G reads 0.03; that for A6C G21U, 0.44; that for A6C G21A, 1.34.
Take A6C G21C: the self-cleavage turned out to be 0.42.
The result for A6C G19A reads 1.02; that for A6C G19C, 0.3; that for A6C G19U, 0.56.
As for A6C G7U, the self-cleavage was 0.1.
Regarding A6C G7A, the self-cleavage worked out at 0.18.
Turning to A6C G7C, the self-cleavage was determined as 0.08.
